Experimental findings from patent US10131691B2, “Compositions and methods for specific regulation of pyruvate dehydrogenase kinase” (THE BOARD OF TRUSTEES OF THE LELAND STANFORD JUNIOR …, priority 2011, dated 2018) are described below.

One experiment addresses T1, εPKC (Homo sapiens, UniProt Q02156).
T1 sequence (Q02156 1-737): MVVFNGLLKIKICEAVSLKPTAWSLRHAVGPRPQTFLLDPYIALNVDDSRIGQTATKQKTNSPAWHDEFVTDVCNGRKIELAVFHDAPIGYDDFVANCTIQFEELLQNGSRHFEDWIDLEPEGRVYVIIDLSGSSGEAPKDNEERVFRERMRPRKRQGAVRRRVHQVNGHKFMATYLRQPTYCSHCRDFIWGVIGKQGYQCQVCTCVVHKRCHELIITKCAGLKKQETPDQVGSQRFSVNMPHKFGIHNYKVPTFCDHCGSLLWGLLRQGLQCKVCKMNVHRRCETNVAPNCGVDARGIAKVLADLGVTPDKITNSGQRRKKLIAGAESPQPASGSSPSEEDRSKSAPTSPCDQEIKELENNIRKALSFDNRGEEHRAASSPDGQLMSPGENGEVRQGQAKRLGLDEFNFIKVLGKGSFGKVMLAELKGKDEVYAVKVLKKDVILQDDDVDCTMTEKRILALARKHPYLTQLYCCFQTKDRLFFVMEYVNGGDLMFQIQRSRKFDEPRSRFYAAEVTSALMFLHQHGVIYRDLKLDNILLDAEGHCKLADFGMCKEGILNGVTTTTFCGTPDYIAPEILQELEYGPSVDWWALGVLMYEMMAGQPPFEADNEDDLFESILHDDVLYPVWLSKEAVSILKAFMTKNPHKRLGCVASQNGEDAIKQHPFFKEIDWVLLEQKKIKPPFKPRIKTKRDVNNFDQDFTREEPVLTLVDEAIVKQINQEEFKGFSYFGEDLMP
Description: Proteinase K sensitivity of εPKC. In kind it is binding.

In the next experiment the target is T2, δPKC (Rattus norvegicus, UniProt P09215).
T2 construct: from tissue; host or cells: rat heart (ex vivo ischemia/reperfusion), mitochondrial fraction
The experiment is described as follows: δPKC translocation into mitochondria in intact hearts (ex vivo I/R). Here is the method:
An ex vivo model of acute ischemic heart damage was used, which involves a 30 min equilibration period, followed by 30 min of global ischemia, which in turn is followed by 60 min of reperfusion. The hearts were perfused with 1 μM TAT or TAT-conjugated peptide. Normoxic control hearts were subjected to 90 min perfusion in the absence of ischemia. Coronary effluent was collected to determine creatine phosphokinase (CPK) release during the first 30 min of the reperfusion period. At the end of the reperfusion period, hearts were sliced into 1-mm-thick transverse sections and incubated in triphenyltetrazolium chloride solution (TTC, 1% in phosphate buffer, pH 7.4) at 37° C. for 15 min. Infarct size was expressed as a percentage of the risk zone (equivalent to total LV muscle mass) (methods described in Brandman et al., 2007, J. Biol. Chem., 282:4113-4123; Inagaki et al., 2003, Circulation, 108:869-875).
Rat hearts were homogenized in a buffer containing 210 mM mannitol, 70 mM sucrose, 5 mM MOPS and 1 mM EDTA followed by isolation of the mitochondria fraction (described in Churchill et al., 2008, J. Mol. Cell. Cardiol., 46:278-284) and identified by the presence of VDAC (MitoSciences, Eugene, Oreg., USA). The level of phosphorylated and unphosphorylated JNK1/2 was analyzed in the total fraction using respective specific antibodies (Cell Signaling, Danvers, Mass. and Santa Cruz Biotechnology, CA, USA). […]
Phosphorylation of the mitochondrial PDK by δPKC occurs only following myocardial infarction Under these conditions, δPKC translocates into the mitochondria (Churchill et al., 2005, Circ. Res., 97:78-85) where it has access to PDK. It was therefore first determined whether ΨPDK peptide affects δPKC translocation into the mitochondria. […] However, similar to the mitochondrial matrix protein, aldehyde dehydrogenase (ALDH2), the majority of δPKC was insensitive to proteolysis by PK (FIG. 4C; quantitated in FIG. 4D).

The target in experiment [1] is T3, δPKC phosphorylation of PDK (Homo sapiens, UniProt Q05655).
T3 construct: purchased Invitrogen (δPKC); Abnova (PDK2)
The experiment is described as follows: In vitro kinase assay: δPKC phosphorylation of PDK2. Format: biochemical. As to conditions: recombinant δPKC and PDK2. How it is done:
(§1) In vitro phosphorylation assay. To determine the level of PDK and Drp1 phosphorylation in presence of ΨPDK, δPKC recombinant protein (Invitrogen, Calif., USA; 200 ng) was incubated with or without peptides for 10 min, then 100 ng recombinant PDK2 (Abnova, Taiwan) or Drp1 (Abnova, Taiwan) were added for 20 min at 37° C. in 40 μl of kinase buffer (20 mM Tris-HCl, 20 mM MgCl2, 1 μM DTT, 25 μM ATP, 1 mM CaCl2) containing 5 μCi [γ^32P] ATP (4500 Ci/mmol, ICN) in the presence of the low amount of PKC activators, phosphatidylserine (PS, 1.25 μg) and 1,2 dioleoyl sn-glycerol (DG, 0.04 μg). The kinase assay was terminated by adding loading Laemmli buffer containing 5% SDS and the samples were loaded on a 10% PAGE-SDS polyacrylamide gel, and the levels of phosphorylated PDK2 protein were determined by exposing the nitrocellulose to autoradiography. The nitrocellulose was also reprobed using respective antibodies for loading controls.
(§2) Since ΨPDK is derived from a PDK-like sequence in δPKC (FIG. 1B), it was reasoned that this peptide should act as a competitive inhibitor, selective for δPKC phosphorylation of PDK. To test this hypothesis directly, an in vitro kinase assay in which the ability of δPKC to phosphorylate PDK is determined was used.

Experiment [2] concerns the target T4, δPKC phosphorylation of Drp1 (Homo sapiens, UniProt Q05655).
T4 construct: purchased Invitrogen
Description: In vitro kinase assay: δPKC phosphorylation of Drp1. Format: biochemical. Here is the method:
as §1, §2

No end group written: not given here.

T2 sequence (P09215 whole entry, the tested form may be a part): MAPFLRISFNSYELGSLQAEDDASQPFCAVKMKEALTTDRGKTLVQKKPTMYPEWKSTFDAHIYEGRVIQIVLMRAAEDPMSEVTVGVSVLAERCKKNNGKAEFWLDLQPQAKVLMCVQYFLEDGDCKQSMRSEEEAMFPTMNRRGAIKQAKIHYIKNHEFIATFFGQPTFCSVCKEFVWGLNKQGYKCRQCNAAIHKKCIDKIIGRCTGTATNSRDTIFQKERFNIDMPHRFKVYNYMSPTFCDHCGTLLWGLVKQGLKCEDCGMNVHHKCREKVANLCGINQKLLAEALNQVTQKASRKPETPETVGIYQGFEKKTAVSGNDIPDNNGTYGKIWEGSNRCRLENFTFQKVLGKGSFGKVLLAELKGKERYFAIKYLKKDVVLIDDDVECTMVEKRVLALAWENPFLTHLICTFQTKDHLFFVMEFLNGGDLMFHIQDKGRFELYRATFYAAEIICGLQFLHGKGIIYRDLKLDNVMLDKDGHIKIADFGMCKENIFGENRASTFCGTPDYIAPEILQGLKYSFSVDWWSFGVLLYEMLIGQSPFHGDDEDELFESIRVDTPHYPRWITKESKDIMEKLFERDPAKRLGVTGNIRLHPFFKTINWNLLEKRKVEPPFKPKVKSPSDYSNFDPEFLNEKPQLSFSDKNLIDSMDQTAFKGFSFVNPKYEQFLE
T4 sequence (Q05655 whole entry): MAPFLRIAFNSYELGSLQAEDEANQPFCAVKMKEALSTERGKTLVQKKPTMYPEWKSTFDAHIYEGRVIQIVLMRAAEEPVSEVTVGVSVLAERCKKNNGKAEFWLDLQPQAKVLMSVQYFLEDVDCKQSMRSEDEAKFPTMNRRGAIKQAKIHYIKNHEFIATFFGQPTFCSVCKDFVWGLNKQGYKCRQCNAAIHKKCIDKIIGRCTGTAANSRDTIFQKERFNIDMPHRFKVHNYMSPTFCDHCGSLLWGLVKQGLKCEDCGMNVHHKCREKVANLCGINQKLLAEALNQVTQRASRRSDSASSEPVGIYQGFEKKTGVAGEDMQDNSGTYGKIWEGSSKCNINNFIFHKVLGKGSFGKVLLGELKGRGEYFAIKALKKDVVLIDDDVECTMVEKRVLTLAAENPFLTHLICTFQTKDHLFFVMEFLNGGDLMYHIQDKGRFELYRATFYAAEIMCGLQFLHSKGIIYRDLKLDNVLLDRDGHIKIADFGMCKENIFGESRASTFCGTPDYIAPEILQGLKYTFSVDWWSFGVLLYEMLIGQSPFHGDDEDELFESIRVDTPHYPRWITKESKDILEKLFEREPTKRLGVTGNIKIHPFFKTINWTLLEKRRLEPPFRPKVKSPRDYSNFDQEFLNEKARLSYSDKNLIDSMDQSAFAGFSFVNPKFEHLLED
T3 sequence (Q05655 whole entry): as above

Consider “ALSTER (not fully specified (C-terminus); also: TAT47-57 conjugated via disulfide) [ΨPDK, for cells and hearts conjugated to TAT47-57 via disulfide bond]”, for which the “sensitivity of εPKC to proteolysis by PK” value with εPKC is “unaffected”. Also, the “δPKC entry into the mitochondria (proteinase K resistance)” value in the experiment with δPKC (following I/R) is reported as “increased I/R-induced δPKC entry into the mitochondria”. Besides, the “δPKC association with the mitochondria” value in the experiment with δPKC (following I/R, vs control peptide) is listed as “two-fold increase”. Also, in the experiment with δPKC (normoxic condition), the “δPKC translocation to the mitochondria” value is “did not induce δPKC translocation to the mitochondria”. Further, in experiment [1], the “inhibition of δPKC phosphorylation of PDK” value is about 30%. Also, the “Drp1 phosphorylation by δPKC” value in experiment [2] is listed as “did not affect Drp1 phosphorylation”.
